In the supplement of paper PMC12636428:

Test system: Saccharomyces cerevisiae
Assay: transcriptional activation domain activity (GFP:mCherry ratio, weighted mean of sorted bins, harmonized to initial dataset scale) (arbitrary fluorescence ratio units); higher = stronger transcriptional activation
Conditions: beta-estradiol 1 µM; induction time 4 h
Outline: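 Barcoded protein tiles fused to an estradiol-inducible synthetic transcription factor were integrated at the yeast URA3 locus, in diploids carrying a GFP reporter. Cultures were diluted 1:5 into SC with 1 uM beta-estradiol, held 4 hours at 30 °C, sorted into 8 bins by GFP:mCherry ratio, and barcodes sequenced. Tiles under 50 reads were discarded. Activation activity is the read-weighted mean of bin median fluorescence, averaged across barcodes, then linearly mapped onto the initial dataset scale.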

| Sequence | transcriptional activation domain activity |
| --- | --- |
| EEDSKVSVDVDRPAKRGRGRPPKPKDPNAPPPKPKSGRGRGRPPKAKPVEVAG | 39800 |
| DKSSGEEGSRKKRKRVSDNGEEDKELEKSKSKDRKKKGKRRDPAEDGAERPAT | 41400 |
| GEAGAEQGEHGARRARTRGAGCVRGRGREVGEGAGARRRVCGRRCEREARAHN | 23400 |
| ILCASLHLLGHLPFRFCDVVLLFICHMFQELGRFDLIPGPVAHLTLRHSIVAA | 63500 |
| MSMFAMDFIIGHMVLFVLSPFTLVPYIDQLHSTMLFWLRPLLRLLRFYVHLYS | 68200 |
| DEEEAPEEGARGRRRKGRGKGKGKQGGGGEEEGGDGEEVEGEGEAEGEQENAG | 24000 |
| FDIITASLENSYQTTLTEKGSQVMEKNMDQLDSVHNLNDDDLQQLLEDLGNID | 111000 |
| INSTIHNLCELAILPDLCGICCFSMRFFVYLDLIGTLILPSTVVYLVWLIIQV | 82700 |
| MQVSNLLLLVLNLCCVVFLLINLDLHSCFFKLILFIFTSCLFNHPLPFQFIFT | 51700 |
| LFLFFLFVFCAYPFWLVRCFLLALLLSLKDLVQIFLFLITTLCCDISEMWSFV | 42800 |
| LALQTMYFIPDIPQQALVDFWPRIWPWVQFFDIYGDIIRLCPPLQLYWVFFAY | 25500 |
| LLVRLRKEYYLALFIFWRVGYNVLLGLMLRSQSDWNLLVRFAKRYGFGQNAGK | 48800 |
| EDGGEDGETGGKILTKAEKEKQKKEREKQRKKEQATPAKAAAEEKKVEAAPAA | 32100 |
| SCLMWVVSCALFMCGQLVFFDLNYYWNLTLVSYFLELSIVLVLMFMKLWLSKR | 30400 |
| ELLNAIVLVHMKLETGDLPPIVSRHIGRFAEQVLSKTPIHLIVTTSFRTLHKI | 73400 |
| KSKKKRRMEEEEEGDEEEEEEQREREEERGERGEREARVRREGKAKKSASSRD | 17300 |
| MAWHFVWQDIPLMGTMHQISYLLNNFIYCFPIAHVHLQVCFFSSLLLIHFYTF | 68200 |
| KIRTNALLSSFLVSLTEGAANGTRFASPEGAVTSALVRIFLRLIWLWTATGRR | 57200 |
| TPEFHGQADVDTGILTLKKDEDIRDHPDAARFAEESKAARITKRGAREGLEHV | 22000 |
| MGFKLLLLLPYCTPRLIFKKLLLWLRFFFFLHFLFLPRRTLKNLAPCIFFLLY | 40900 |
| VNYHLAMRYFMRYLFTQDLLPLLLAAKEQCQQAHVMCVQGAGFGLRIRTDDIG | 45000 |

| Sequence | transcriptional activation domain activity |
| --- | --- |
| MFRLLEESFRYEPFVTFGLAVFACYFALIALNVVYYYYLFHFLWFCSYAFLAL | 51600 |
| ALVTVLLLLMGYLPHLNTVTLTVRTFRNRLSHHDFSQHELAIFLDLLPRRCPN | 98800 |
| GLTLLCLRRILQLWAGSDQLSELVSYVPVHLRVLAMRDAAVFAPLSRKVLQAL | 57700 |
| FILSGCTFRLLFCIFGIRVWLDHQLCGNLLVVELYRKIVRSIDAYHHGKGYPT | 61700 |
| MSVFILFVGCFYCMVCLFSPSYMWFFCGVISILFLIFPFLHDFQLYFFFGGGH | 41700 |
| LHKRLEVTAYITCTRVIQRVVWFLLQGKYRLDYYWEEVWRALLNLLDFISNKI | 71300 |
| VRTALLKSSHDADIDATVHDQAVREFCSSLNAVTRGVNVLVMTVALLVEIYAA | 84400 |
| GNAVYMSMDLPDTTFALSKLLNYIEWNRAKLFSFAFFVCVWTYFRHYLNLVIL | 46000 |
| LGLDSGYLWSGILYNLSVTISLYSLGMFWVCMSKDLQPFRPVPKFLCIKLIIF | 53200 |
| MLQRFWYLALLAKRRTDLFSFKLSCLELLCFLPISMVVCHIWVIMGPLFFILF | 50800 |
| QMLNPLEKILLSLASIVLSSRVSRNLFVLYALGLHFIVLFTLYSVVYVFIFCS | 37500 |
| FRVNLMSCIVARLSKKSWIRSVSFPADLTGTASLEIVRLLNRMVKEKRFNIHP | 36300 |
| MFFKMMTTQDIQFVNVCFKLHSTLPMLFIGGIFLIIHCTSSSAIKGRICTAAF | 34100 |
| MDFNGVVFCPVYISLLPLFFYPYNIYHFNDSLMRPNEISVAVYLLLILLNFQD | 51000 |
| MFESVNLDENSPEDRELAKVLSPPGSYLSPASLDSGSSFTNSGTSTSCFEPKN | 32400 |
| TRVQDEWVSITKLARQAKESAGKEKKGKGGRGVYSQNSKVWEGVVKLLVAIVA | 46300 |
| MVHIRTVVSFIFLVAGVLWTLFYLFIYFCLWDRRGHYVFLFCFCGCSRFMHFV | 56500 |
| AIHRQLVESILGTTLRCTADISALDVSIADTLWYLLDGTARMVIQFFAVVLFA | 62700 |
| VVAAETAPATEEKPAEETKPAEEAAKAEEKKEEEEIKPVEEGHLNHKAQGLSF | 49400 |
| MSTEEQADGAPSSASDAGLKIWSCVTCRRRKVRCDRRDPCSNCVRAAIDCHYP | 30100 |
| AKRGRASSNASSVQGSTGAASGSSRNKRGGAAEERAGSTSADLANKTADQRKR | 22900 |

| Sequence | transcriptional activation domain activity |
| --- | --- |
| KTSNDLKYLFTFVEYHVFVSLIRRSLSQLDENKEKHEQMIKLYDDILKNIECI | 24800 |
| LLNVHVCVIYFVGWIVSLFQFCQIAIQQPTLDWVHCLPYILRVLLGFDLVYVT | 66100 |
| MVVLCPYNVLQKRERDAFLLALRRCLFAPINHPVYFSDVVFADIFTSYAKVLG | 44000 |
| MVCFQITFLYSAFFPLFSFSFLLNIFPTISIFPHLLQILAAFFVLFYAFFSTM | 55100 |
| VEAAEPEIEVPNKDSRPSKRGRKEKVIEEEDSAPVDKPVSKGKKAAPVAKTAL | 15300 |
| EEGDMDVDEEEGTPTKKRKLSKEEKKALKKEKKKAAKDAAAAVSDYWIVCDQS | 45200 |
| EAEAGADGSEGGEDDGREKEEVEEEGGEEEGGEEEGREDDDTKAEAEAEELSE | 26600 |
| GERDIDVSSIEDVVKRECKKRVENEKLAQVGYAYDLAHSKAAAHLEAVKKLRK | 32900 |
| TNPDKIRLIPGFKYLQLVLGRDQYCREILAMMARMGFLMPKTMYSTLLRLWLL | 65200 |
| SSSSSSSSESGSESDSGSDDGSASGSGDNSSTSSESESESDSGSEVDEKNNKN | 33900 |
| GSDAPASGRAKSKTPKATGAKNGGKGGKGDATEEAEAKREEGGEEKRAAKKSK | 20000 |
| LHFMYVVAIKDRKAWVGYSAAELCMVGFWNLIVVWLKLLVPWRFFRLWALADG | 61900 |
| AYSITLPICSSPILLLFIQSLLFLLPLFSITLSPSFSFILYLLHLFSLLLLCL | 30200 |
| MIGDGGRVFRVHSSLSLSFVIFFFSVLLFFFCPFSFVFYCIYAFLVPGLVVLV | 35200 |
| SSTWFEPLENIISSASSSSIGSPIEDQFISSNNEESALFPTDQFFSNPSSYSH | 84600 |
| GVLMCYYSRSHNFDVAKRHFQRILNLLPLLKSTPNIFPLYGLIFSTMGLLVLI | 62600 |
| FYFICLFFILYFVFIFMFVFHMFVFYFLCFFLCLIYFLLVYFDICFLSLYLFF | 42600 |
| MLFIPFCVLFFVWLWGLINYGAFVDPCFLSFYVLLSTLLQLPSSSFLSFFALF | 54400 |
| HVAMRAAVKANNSVMHRLLRNWGENRRRHFHGLLLVRLFRTTLVFSCADEVAA | 53300 |
| LVGDANGCRVLPAFQLWPLLSTFNLLYSISSTSWLLYWVFTSLCYPAIFLVCL | 55700 |
| MISTLAMSLLETPIEPRTHAEICLEFWGIRLCSPITDINLAAFWNYYFKTIAH | 45600 |

| Sequence | transcriptional activation domain activity |
| --- | --- |
| IHSMYRPFQMLTMDFMVMNLCLFSAILLGILYLFFGAFHLVFTVVYDFKLWQV | 43200 |
| ELLVLLDQHWNYSRLRYPICFLSRTASEMLTFVRSMMEWLGGTVSKEDVGEDG | 25800 |
| GGGSEERGGRGRQEGGKDREAGGRERGSAGEREETEGGTGAEGGGGGERRQGE | 32300 |
| AEDSDASMDDAPAPKEAAKKAAPVEAGSDSESDSEAEKKKKKAAKKSKKEVVP | 22600 |
| MSGQLPAGAPRASPADASPTGPRAPTSSRPACLSCHTHKKRCVWKSAAPGTPC | 69400 |
| MQGWVHALFSFFFNLIVVALLSCLCFIHLSSSYYNLCPVLYLTTPCLFIRFYI | 62000 |
| MVKLLLTRLPYFCVLVYCVFRYPIATFCLDIFLFFKQLCQNAHAIQWPQISWL | 77200 |
| IIHLVNLAQVTVFLVHRILYGIIPLFEIQTCAYFPLLVSLWHMTYILFYVVMF | 36100 |
| NTWLLFRQVVDVILLNDFVAYCMFAFSCFRVPEGLSLAVHIMRWVAGIALIAF | 56200 |
| MSYLQMFTLIEGKFQKQMLFLFFFLLCNLLSFFYIYIYVLLTLIFFTTTSIHL | 56700 |
| AEEEEDAEDEVVEEKIPAKRGRKPRGEKIEEVSSPAAAAPVRGKKAAAAAAKP | 24200 |
| DPFVEQNNDITTALLNNELFQGPSLSDEVTDWFGASEDIGLEFVEPWTELIEQ | 144000 |
| VVNVLLSVFNGYDTGKSGIRCNPLPNSFIPLIMTAMLLSMLTFLLVTTIACYV | 38300 |
| SIAISPESAVANLGTDTGLPSDVLDTVSKIGNSPNVFDDDLFSNLLWFDQNFA | 142000 |
| MHRELTGYFFSFFFFLFFFSFFIHISRLAVYIWDWVTSLHFFIFVILNILGSS | 66700 |
| LRAMVMAAPYDGDINITFTKHRSKIYIRPNNTLSELLSNGWIKFLAIILFIYP | 36600 |
| GRKKRAVKKKAEGAGAGAGGGGGGAEAEGKVETKGKKAAKPKSRTKAGAKAKG | < 6570 |
| VGRLVWFVTLLHVLFWVVQVLKDRRALTGKLVFAYVWQYQKFRFAWVAFLSMT | 75200 |
| ISGQEHKDMCRILLGLIIDLPLPSGQVTSRIIRLVHALLDFLYLAQLPSQTTN | 61400 |
| IKDFEAHLFAIILYHLSFFGCRALGVVSMLKCQGQMCDPWSLMYRGLYVFYRL | 35900 |
